Literature values in patent US6759420B1, “Arylalkanoyl derivatives, processes for their preparation, their use and pharmaceutical compositions containing them” (Aventis Pharma Deutschland GmbH, priority 1999, dated 2004).

B1: antistasin (protein, UniProt P15358 18-136, looked up)
Antistasin: QGPFGPGCEEAGCPEGSACNIITDRCTCSGVRCRMHCPHGFQRSRYGCEFCKCRLEPMKATCDISECPEGMMCSRLTNKCDCKIDINCRKTCPNGLKRDKLGCEYCECRPKRKLIPRLS

Legend:
thrombin and factor Xa = conditions: via anti-thrombin III; cited from earlier work
[1] = TAP at levels giving less than about two fold aPTT prolongation; heparin at doses causing a five fold increase in aPTT; cited from earlier work
[2] = recombinantly-produced inhibitor, cited from earlier work; for bleeding time compared to other anticoagulants: animal model systems; for clotting in thromboplastin-induced, ligated jugular vein model of deep vein thrombosis: animal model
factor Xa = factor Xa (Homo sapiens, UniProt P00742); conditions: background statement; cited from earlier work
factor Xa, sequence (P00742 235-488 limits assumed): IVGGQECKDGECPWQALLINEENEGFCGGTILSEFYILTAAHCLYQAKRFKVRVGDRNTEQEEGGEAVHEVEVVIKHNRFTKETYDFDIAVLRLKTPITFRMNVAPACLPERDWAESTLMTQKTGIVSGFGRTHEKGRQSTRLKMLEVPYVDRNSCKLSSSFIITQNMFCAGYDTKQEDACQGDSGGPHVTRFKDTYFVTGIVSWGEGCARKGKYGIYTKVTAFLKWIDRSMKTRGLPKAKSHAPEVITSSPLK
factor Xa, sequence (P00742 41-179 limits assumed): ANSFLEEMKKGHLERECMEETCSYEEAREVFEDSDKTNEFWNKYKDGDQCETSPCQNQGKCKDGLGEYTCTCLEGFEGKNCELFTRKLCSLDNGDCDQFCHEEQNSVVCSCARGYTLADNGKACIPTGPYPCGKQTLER

[3] = subcutaneous; cited from earlier work

Molecule	thrombin inactivated faster than factor Xa (thrombin and factor Xa)	"high-shear" arterial thrombosis and "reduced flow" caused by polyester (DACRON) graft [1]	bleeding time compared to other anticoagulants [2]	clotting in thromboplastin-induced, ligated jugular vein model of deep vein thrombosis [2]	Ki (factor Xa)	treatment in thromboplastin-induced model of disseminated intravascular coagulation [3]
heparin	approximately 100 times	did not prevent thrombosis				
tick anticoagulant peptide (YNRLCIKPRDWIDECDSNEGGERAYFRNGKGGCDSFWICPEDHTGADYYSSYRDCFNACI; UniProt P17726 1-60, looked up) [TAP, reference compound]		effectively prevents	decrease bleeding time	prevent clotting	~0.5 nM	
B1			decrease bleeding time	prevent clotting	0.05 nM	effective treatment
